Target: G-CSF receptor
Experiment: cell-based or functional assay

EC50/Neupogen (reporter activity in cells expressing the G-CSF receptor) (ratio to Neupogen) | Substance
0.66 | G-CSF[C17A] (from UniProt P09919 31-207) (ligand)
0.38 | Wild-type G-CSF (from UniProt P09919 31-207) (ligand)

Reference: US20040254351A1
